Data as given in the nanobody polyreactivity screen of Harvey et al. (2022).

Test: yeast display, Sf9 membrane polyspecificity reagent, FACS + sequencing; frameworks hold sequencing errors
How it was run: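 Nanobodies came from a synthetic yeast display library in Saccharomyces cerevisiae BJ5465, induced with galactose for 36–48 hours and stained for 1 hour at 4 °C with 10% biotinylated, detergent-solubilized Sf9 membrane reagent. Cells were enriched on streptavidin microbeads and then FACS-sorted, with low and high (top ~1%) gates set on anti-HA fluorescence for expression and streptavidin fluorescence for reagent binding. Each polyreactivity label reflects the gate a clone came from. Genes were amplified by colony PCR, sequenced by MiSeq 2 × 250 and filtered by CDR length.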
For “QVQLVESGGGLVQAGGSLRLTCAPSGRIFTRNTMGSYRQAPGKERELVAAISTGASTYYADSVKGRFTISRDNATNSVYLQMNSLKPEVTAVYYCATRGYARYWGLGTQVTVSS”, the “polyreactivity (PSR sort gate)” value was “low polyreactivity”.
With “QVQLVESGGGLVQAGGSLRLTCASSGRIYVVNAMGWYRQAPGKEMELVADIYRSGGSTYYADSVKGRFTISRDYAKNTVYLQMNSLKPEDTAVYYCAAEDWPSSPSAPGFDYDYWGQATQVTVSS” the “polyreactivity (PSR sort gate)” value was “low polyreactivity”.
In the case of “QVQLVESGGGLVQAGGSLRLTCDASGITFRLYAMGWSRQAPGKETELVARITDRGSTYYADSVKGRFTISRDNAKNTVYLQMNSLKPEDTAVYYCAARGYRGLVQLRYGYWGQGTQVTVSS”, the “polyreactivity (PSR sort gate)” value is reported as “high polyreactivity”.
With “QVQLVESGGGLVQAGGSLRLTCDASGITYYGYAIGWSRQAPGKEREWVAGINNGGSTTYADSVKGRFTISRDNAKITVYLQMNSVKPEDTAVYYCAADPVYLNKLLYYVGQAYYYWGQGTQVTVSS” the “polyreactivity (PSR sort gate)” value was “high polyreactivity”.
In the case of “QVQLVESGGGLVQAGGSLRLTCDASGSTFYIYAMGWYRQAPGKERELVARISGSCGSTYYADSVKGRFTISRDNAKNTVYLQMNSLKPEETAVYDCASDDIYKNYQYYAFPYYRYDYWGQGTQVTVSS”, the “polyreactivity (PSR sort gate)” value is reported as “low polyreactivity”.
For “QVQLVESGGGLVQAGGSLRLTCSASGIILYYYAMGWNRQAPGKERELVAAISSSGGSTYYADSVKGRFTFSRDNAKNTVYLQMKSLKPEDTAVYYCAAWVVPLRYAYGRLTYNYWGQGTQVTVSS”, the “polyreactivity (PSR sort gate)” value was “high polyreactivity”.
With “QVQLVESGGGLVQAGGSLRLTSADSGRTLYNYAMRWYRQAPGKERELVAGISSAGSTNYADSVKGRFTISRDNAKNTVYLQMNSLKPEDTAVYYCNAVLRRRWVTFYYWGQGPQVTVSS” the “polyreactivity (PSR sort gate)” value was “high polyreactivity”.
For “QVQLVESGGGLVQAGGSLRLTSAGSGSTFSYYTMGWYRQAPGKERELVATIRSTGSTTYADSVKGRFTISRDNVKNTVYLQMNSLKPEDTAVYFCAARSRWGGYIHTGYDYWGQGTQVTVSS”, the “polyreactivity (PSR sort gate)” value was “low polyreactivity”.
With “QVQLVESGGGLVQAGGSLRLTWAATGSIFRTNAMGSYRPAPGKERELVAAITGSGGSTYYADSVKGRFTISRYNAKNTVYLQMNCLKPEETAVYYCAAEFGSFVSPYNYYYWGQGTQVTVSS” the “polyreactivity (PSR sort gate)” value was “low polyreactivity”.
In the case of “QVQLVESGGGLVQAGGSLRSSCAASGSLFTSNTMGWHRQAPGKERELVAAITSSGGSMFYADSVKGRFTISRDNAKNTVYLQMNSLKPEDNAVYYCAADTIGYHDWYDYWGQGTQVTVSS”, the “polyreactivity (PSR sort gate)” value is reported as “low polyreactivity”.
With “QVQLVESGGGLVQAGGSLRVSCAASGFIFGDYAMGWYRQAPGKERELVAAINRGASTYYADSVKGRFTISRDNAKNTVYLQMNSLKPEDTAVYYCAAAGYSRGGRGGYWGQGTHVTVSS” the “polyreactivity (PSR sort gate)” value was “high polyreactivity”.
In the case of “QVQLVESGGGLVQAGGSLRVSCAASGFIFPGNAMGWYRQAPGKERELVAAISNSGSRTYYADSVKGRFTISRDNAKNTVYLQMNSLKPEDTAVYYCNADVHNRGWPYDYWGQGTQVTVSS”, the “polyreactivity (PSR sort gate)” value is reported as “low polyreactivity”.
With “QVQLVESGGGLVQAGGSLRVSCAASGFIFYGYTMGWYREAPGKERELVARISRRGGSTYYADSVKGRFTISRDNAKNTVYLQMNSLKPEDTAVYYCATRALGHFDWGQGTQVTVSS” the “polyreactivity (PSR sort gate)” value was “low polyreactivity”.
In the case of “QVQLVESGGGLVQAGGSLRVSCAASGFTFSDYAMGWYRQAPGKESELVAGISSGGSTNYADSVKGLFTISRDNAKNTVYLQMNSLKPDDTAVYYCAADLYATWSYFFTWLDYWGQGTQVTVSS”, the “polyreactivity (PSR sort gate)” value is reported as “high polyreactivity”.
For “QVQLVESGGGLVQAGGSLRVSCAASGGIFGLYTMGWYRQAPGTERELVAGISKRGTRTRYADSVKGRFTISRDNAKNTVYLQMNSLKPDDTAVYYCNADYYVSKLDDWGQGTQVTVSS”, the “polyreactivity (PSR sort gate)” value was “high polyreactivity”.
With “QVQLVESGGGLVQAGGSLRVSCAASGGILRGYAMGWYRQARGKEWELVAAISRGGRTNYADSVKGRFTISRDNAKNTVYLQMNSLKPEDTAVYYCAKRYARGENDYWGQGTQVTVSS” the “polyreactivity (PSR sort gate)” value was “high polyreactivity”.
In the case of “QVQLVESGGGLVQAGGSLRVSCAASGIIFDGNAMGWYRQAPGKERELVAAITASGGSTHYADSVKGRFTISRDNAKNTVYLQMNSLKPEDTAVYYCNKRSRTTGDYDYWGQGTHVTVSS”, the “polyreactivity (PSR sort gate)” value is reported as “low polyreactivity”.
For “QVQLVESGGGLVQAGGSLRVSCAASGIIFGSYPMGWYRQAPGTERELVATISFSGGTTNYADSVKGRFPISRDNATTPVYLQMNSLTPEDTAVYYCAARPAPATGKLDYWGQGTQETVSS”, the “polyreactivity (PSR sort gate)” value was “low polyreactivity”.
In the case of “QVQLVESGGGLVQAGGSLRVSCAASGITFAYYAMGWYRHAPGKDRELVAAITRRGSSTYYADSVKGRFTISRDNAKNTVYLQMNSLKPEATAVYYCAAVAYGRERYDYWGPGTQVTVSS”, the “polyreactivity (PSR sort gate)” value is reported as “high polyreactivity”.
In the case of “QVQLVESGGGLVQAGGSLRVSCAASGLILAYYDMGWYRQAPGKERELVASITGSGGDTYYADSVKGRFTISRDNAKNTVYLQMNSLKPEDTAVYYCAAEYRNVYWIFGVDYWGQGTQVTVSS”, the “polyreactivity (PSR sort gate)” value is reported as “low polyreactivity”.
With “QVQLVESGGGLVQAGGSLRVSCAASGNTFYYTMGWYLQAPGKERELVATISYDGTSTYYADSVKGRFTISRDNAKNTVYLQKNSLKPEDTAVYYSSAYGTVVTLNDYWGQGTQVTVSS” the “polyreactivity (PSR sort gate)” value was “low polyreactivity”.
For “QVQLVESGGGLVQAGGSLRVSCAASGRIFPFYAMGWYRQAAGKERELVAAISWNGGSTFYADSVKGRFTSSRDNANNTVYLQMHRLKPEDNAVYYCNADFRPAYTYDYWGQGTQVTVSS”, the “polyreactivity (PSR sort gate)” value was “low polyreactivity”.
In the case of “QVQLVESGGGLVQAGGSLRVSCAASGRIFYPYAMGWYRQAPGKERELVAAIRRSGVDTYYADSVKGRFTISRDNAKNTVYLQMNSLKPEDTAVYYCDADPYWFFPHYDSWGQGTQVTVSS”, the “polyreactivity (PSR sort gate)” value is reported as “low polyreactivity”.
With “QVQLVESGGGLVQAGGSLRVSCAASGRIVWPNTMGWSRQAPGKERELVAAISWSGGSTYYADSVKGRFTISRDNAKNTVYLHRNSLKPEHTAVYSCAKRPPHYSWPKIIDFGSWGQGTQVTVSS” the “polyreactivity (PSR sort gate)” value was “high polyreactivity”.
In the case of “QVQLVESGGGLVQAGGSLRVSCAASGSIFDSNAMGWYRQAPGKERELVASITSSGGSTYYADSVKGRFTISRDNAKNTVYLQMNSLKPEDTAVYYCAKRAWTGYGYYYWGQGTQVTVSS”, the “polyreactivity (PSR sort gate)” value is reported as “high polyreactivity”.
In the case of “QVQLVESGGGLVQAGGSLRVSCAASGSTFPPSAMGWYREAPGKERELGAAIDWSDGTTYYADSVKGRFTISRDYAKNTVYLQMNSLKPEDTAVYYCAADPVLDEYDYWGQGTQVTVSS”, the “polyreactivity (PSR sort gate)” value is reported as “low polyreactivity”.
For “QVQLVESGGGLVQAGGSLRVSCAASGSTFVYYAMGWYRQAPGKERELVAAITASGGGTYYADSVKGRFTISRDNAKNTVYLQMNSLKPEDTAVYYCNRGYDYWGQGTQVTVSS”, the “polyreactivity (PSR sort gate)” value was “low polyreactivity”.
In the case of “QVQLVESGGGLVQAGGSLRVSCAASGSTFYEYAMGWYRQAPGKERELVAAITRGGTTYYADSVKGRFTISRDNAKNTDYYQMNSLKPEDTAVYYCAARTRGFTKLGYWGQGTQVTVSS”, the “polyreactivity (PSR sort gate)” value is reported as “high polyreactivity”.
With “QVQLVESGGGLVQAGGSLRVSCAASGTTFPRNAMGWYRQAPGKERELVATITSAGGGTYYADSVKGRFTISRDNAKNSVYLQMNSLKPEDTAVYYCNADGPAGDAFDSWGQGTQVTVSS” the “polyreactivity (PSR sort gate)” value was “low polyreactivity”.
For “QVQLVESGGGLVQAGGSLRVSCAASGYTFDLYAMGWYRQAPGKERELVADISSGGSTNYADSVKGRFTISRDNAKNTVYLQMNSLKPEDTAVYYCAVDADRTLFGQYYVSEYGGGYWGQGTQVTVSS”, the “polyreactivity (PSR sort gate)” value was “low polyreactivity”.
With “QVQLVESGGGLVQAGGSLSFSCAASGNTFYRNAMGWYSQAPGKERELVAAITFSTVRTYYADSVKGRFTISRDNAKNTVYLQMNSLKPEDTAVYYCNKLYRGTWAKENGYWGQGTQVTVSS” the “polyreactivity (PSR sort gate)” value was “high polyreactivity”.
In the case of “QVQLVESGGGLVQAGGSLSISCAASGRTFYAYAMGWYRQAPGTERELVASIDKSGGSTYYADSVKGRFTISRRIRRYRLFTDEQPETGRYRCLLLRCWCVVLSDFQFWGDFDYDYWGQGTQVTVSS”, the “polyreactivity (PSR sort gate)” value is reported as “low polyreactivity”.
With “QVQLVESGGGLVQAGGSLSISCASSGRNFGANAMGLYRQAPGKERELVAVITGGGGTYYADSVKGRFTISRDNAKNTVYLQMNSLKPEDTAVYYCDWPRYYYTYPSHPMDYWGQGTQVTVSS” the “polyreactivity (PSR sort gate)” value was “low polyreactivity”.
For “QVQLVESGGGLVQAGGSLSLICAASGNTFPPYAMGWYRQAPGKERELVAAISCGGRTYYADSVKGRFTISRDNAKNTVYLQMNSLTPEDTAVYYCAVYVPNYYSYHYDYWGQGTQVTVSS”, the “polyreactivity (PSR sort gate)” value was “high polyreactivity”.
For “QVQLVESGGGLVQAGGSLSLICAASGSIFAPNAMGLYRQAPGKERELDATITKRGGNTYYADSVKGRFTISRDNAINTVYLKMNSLKPEDSAVFYCNDSPYSRWSSYGYDYWGQGTQVTVSS”, the “polyreactivity (PSR sort gate)” value was “low polyreactivity”.
With “QVQLVESGGGLVQAGGSLSLICAASGSTFNLYPMGGYRKAPGKERELVAAISRGGSTNYADSVKGRFTISRDNAKNTVYLQMNSLIPEDTAVYYCAARSWYDRYPYYSWGQGTQLTVSS” the “polyreactivity (PSR sort gate)” value was “high polyreactivity”.
For “QVQLVESGGGLVQAGGSLSLICAASGTTFYYYAMGWYRQAPGKERELVAANTLRGTSTYYADSVKGRFTISRDNAKNTVDLQMNRLKPEDTAVYYCAVETYYSIFDIYDYWGQGTQVTVSS”, the “polyreactivity (PSR sort gate)” value was “low polyreactivity”.
With “QVQLVESGGGLVQAGGSLSLICDASGRTFTRYVMGWYRHAPGKERELVAAISSSGGTYYADSVKGRFTISRDNAKNTVYLQMNSLKPEDTAVYYCAVGSKLSRSYGYYYWGQGTQVTVSS” the “polyreactivity (PSR sort gate)” value was “high polyreactivity”.
For “QVQLVESGGGLVQAGGSLSLRCAASGGTFAPYAMGWYRQAPGTERELDAAISWSGGSTYYADSVKGLFTISRDNAKISVYLQMNSLKPEDTAVYYCAGRLTRGIYSTYYYWGQGTQGTVSS”, the “polyreactivity (PSR sort gate)” value was “high polyreactivity”.
In the case of “QVQLVESGGGLVQAGGSLSLSCAASARIFYGYAMGWYRQEPGKEREFVAAITSGGRTYYADSVKGRFTISRDNAKNTVYLQMNSLKPEDTAVYYCAAAQYYRYGYWGQGTQVTVSS”, the “polyreactivity (PSR sort gate)” value is reported as “high polyreactivity”.
With “QVQLVESGGGLVQAGGSLSLSCAASARTFYYYAMGWSRQAPGKEREFVASITWRGGRTYYADSVKGRFTISRDNAKNTVYLQMNSLKPEDTAVYYCAADGSYAIGGYGYWGQGTQVTVSS” the “polyreactivity (PSR sort gate)” value was “high polyreactivity”.
With “QVQLVESGGGLVQAGGSLSLSCAASGFIFGGNAMGWYRQAPGKERELVAAISSGGRTYYADSVKGRFTISRDNAKNTVYLQMNSLKPEDTAVYYLNDYSYHRGRDYWGQGTQVTVSS” the “polyreactivity (PSR sort gate)” value was “low polyreactivity”.
For “QVQLVESGGGLVQAGGSLSLSCAASGFIFSYYVMGWYRQAPGKERELVAAINESGGRTYYADSVKGRFTISRDNAKNTVYLQMNSLNPEDTAVYYCAASVLNKIQGYRDYYWGQGTQVTVSS”, the “polyreactivity (PSR sort gate)” value was “low polyreactivity”.
